Results as given in PMC7261492, “ISCU interacts with NFU1, and ISCU[4Fe-4S] transfers its Fe-S cluster to NFU1 leading to the production of holo-NFU1” (Journal of structural biology, 2020).
One block for each molecule: values may come before it.

Columns and labels:
human apo-NFU1 (human) [1] = biological target: human apo-NFU1 (human) (UniProt Q9UMS0); experiment: SAXS; apo-NFU1:ISCU complex isolated by SEC, dialysed against HNT buffer, 2-8 mg/mL, 298 K; molecular mass by the Vc approach
human apo-NFU1 (human) [2] = biological target: human apo-NFU1 (human) (UniProt Q9UMS0); experiment: ITC; Nano ITC, 25 °C, HNT buffer; syringe 0.8 mM ISCU, cell (169 μL) 0.03 mM NFU1; 20 injections of 2.5 μL; fitted to a 1:1 binding mode
[3] = biological target: T1, human ISCU (human), Q9H1K1; experiment: SEC; anaerobic; mixture of [U-15N]-apo-NFU1 and ISCU[4Fe-4S] incubated 30 min, HiLoad Superdex 200 PG, HNT buffer, 1 mL/min; fractions analysed by SDS-PAGE; conditions: remark: other sources report otherwise
T1 chain: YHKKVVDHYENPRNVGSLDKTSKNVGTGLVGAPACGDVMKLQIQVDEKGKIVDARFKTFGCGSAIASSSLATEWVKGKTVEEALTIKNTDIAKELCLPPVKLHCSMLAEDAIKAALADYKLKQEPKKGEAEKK

[4] = biological target: the molecule itself; experiment: as above

- stoichiometry N (human apo-NFU1 (human) [1]): 1
- Kd (human apo-NFU1 (human) [2]): 1100 nM
Molecule: human ISCU (from UniProt Q9H1K1 35-167) (natural protein)

- stoichiometry N [3]: 2
B1: human ISCU, Q9H1K1 35-167 (natural protein)
chain: YHKKVVDHYENPRNVGSLDKTSKNVGTGLVGAPACGDVMKLQIQVDEKGKIVDARFKTFGCGSAIASSSLATEWVKGKTVEEALTIKNTDIAKELCLPPVKLHCSMLAEDAIKAALADYKLKQEPKKGEAEKK

B2: human holo-NFU1 (natural protein, UniProt Q9UMS0 10-254, looked up)
chain: GAAAVAAGLRRRFCHMLKNPYTIKKQPLHQFVQRPLFPLPAAFYHPVRYMFIQTQDTPNPNSLKFIPGKPVLETRTMDFPTPAAAFRSPLARQLFRIEGVKSVFFGPDFITVTKENEELDWNLLKPDIYATIMDFFASGLPLVTEETPSGEAGSEEDDEVVAMIKELLDTRIRPTVQEDGGDVIYKGFEDGIVQLKLQGSCTSCPSSIITLKNGIQNMLQFYIPEVEGVEQVMDDESDEKEANSP
modifications: [4Fe-4S] cluster bound by C195 and C198; two NFU1 chains supply the four cysteine ligands of one cluster
notes: NFU1, human, with both the N-terminal domain (NTD) and the C-terminal domain (CTD); Same chain as m2 with the [4Fe-4S] cluster; trimer of cluster-linked dimers (hexamer, 160 kDa); also called NFU1[4Fe-4S]; hexameric holo-NFU1; source: prepared as described earlier (Cai et al., 2016); in the anaerobic SEC formed by adding ISCU[4Fe-4S] to [U-15N]-apo-NFU1
- stoichiometry N [4]: 6
